In patent US5985836A, “Alpha-1 proteinase inhibitor binding peptides” (Bayer Corporation, priority 1998, dated 1999):
Ends that are not written are not given here.

Key:
Assay type in all cases: binding
[1] = target: T1, A1PI (Homo sapiens, UniProt P01009); experiment: A1PI yield from dialyzed (aqueous) Effluent II+III; conditions: 4° C.
T1 construct: Human plasma is currently the only approved source of therapeutic AlPI
Method in brief: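 Effluent II+III was dialyzed at 4° C against equilibration buffer (15,000 MWCO) to remove ethanol. It was then applied under the same binding conditions as neat feed, and A1PI was tracked by nephelometry in the 1M NaCl and acid eluates.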

[2] = target: T1, A1PI; experiment: A1PI purification from 5 mg hSA + 1 mg A1PI on peptide column, A1PI mass balance; conditions: A1PI, 5 mg hSA + 1 mg A1PI; for Mass Protein per Eluate Fraction, 1M NaCl / Mass Protein per Eluate Fraction, 2% Acetic Acid / Mass Protein per Eluate Fraction, Flow: * Below detection limit; for Percent Eluted by Fraction, 1M NaCl / Percent Eluted by Fraction, 2% Acetic Acid / Percent Eluted by Fraction, 3M NaCl / Percent Eluted by Fraction, Flow: relative to total loaded
Method in brief: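 Peptides on A-Totda-Toyopearl resin (0.1 mmole/g) in 0.4×5 cm columns; 5 mg hSA + 1 mg A1PI loaded at 4 °C or 20 °C with 10 min residence (17 μl/min). Steps of 1M and 3M NaCl, then 2% acetic acid; fractions quantified by immunonephelometry for mass balance.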

[3] = target: T1, A1PI; experiment: Capture and elution of active A1PI with 2M urea buffer (elastase inhibition activity assay and immunonephelometry); conditions: 4° C.
[4] = 1 ml dialyzed Eff. II+III (ethanol removed)
[5] = A1PI, 1 ml dialyzed Eff. II+III

T1 sequence (P01009 25-418): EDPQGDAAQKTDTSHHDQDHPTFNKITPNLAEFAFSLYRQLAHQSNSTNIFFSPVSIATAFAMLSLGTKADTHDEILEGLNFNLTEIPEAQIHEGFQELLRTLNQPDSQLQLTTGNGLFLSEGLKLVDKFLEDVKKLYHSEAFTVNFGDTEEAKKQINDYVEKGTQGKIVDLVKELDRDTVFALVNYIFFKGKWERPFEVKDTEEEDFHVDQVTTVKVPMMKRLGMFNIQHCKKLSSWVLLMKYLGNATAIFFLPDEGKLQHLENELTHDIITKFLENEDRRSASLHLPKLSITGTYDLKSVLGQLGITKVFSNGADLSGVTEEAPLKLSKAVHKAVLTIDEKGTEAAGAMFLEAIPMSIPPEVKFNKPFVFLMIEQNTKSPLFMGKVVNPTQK

What does the source list for VIFLVR?
Mass A1PI per Eluate Fraction, 1M NaCl [1, 4]: 0.09 mg; Mass A1PI per Eluate Fraction, 2% Acetic Acid [1, 4]: 0.37 mg; Mass A1PI per Eluate Fraction, Flowthrough [1, 4]: 0.25 mg; Percent Eluted by Fraction, 1M NaCl [1, 5]: 13%; Percent Eluted by Fraction, 2% Acetic Acid [1, 5]: 51%; Percent Eluted by Fraction, Flowthrough [1, 5]: 36%; Mass Protein per Eluate Fraction, 1M NaCl ([2]; Table 10, 4° C.): 0.05 mg; Mass Protein per Eluate Fraction, 2% Acetic Acid ([2]; Table 10, 4° C.): 0.61 mg; Mass Protein per Eluate Fraction, Flow ([2]; Table 10, 4° C.): 0.13 mg; Percent Eluted by Fraction, 1M NaCl ([2]; Table 10, 4° C.): 7%; Percent Eluted by Fraction, 2% Acetic Acid ([2]; Table 10, 4° C.): 77%; Percent Eluted by Fraction, 3M NaCl ([2]; Table 10, 4° C.): 0%; Percent Eluted by Fraction, Flow ([2]; Table 10, 4° C.): 16%; Mass Protein per Eluate Fraction, 1M NaCl ([2]; Table 10, 20° C.): 0.02 mg; Mass Protein per Eluate Fraction, 2% Acetic Acid ([2]; Table 10, 20° C.): 0.60 mg; Mass Protein per Eluate Fraction, Flow ([2]; Table 10, 20° C.): 0.17 mg; Percent Eluted by Fraction, 1M NaCl ([2]; Table 10, 20° C.): 2%; Percent Eluted by Fraction, 2% Acetic Acid ([2]; Table 10, 20° C.): 76%; Percent Eluted by Fraction, 3M NaCl ([2]; Table 10, 20° C.): 0%; Percent Eluted by Fraction, Flow ([2]; Table 10, 20° C.): 22%; Mass Protein per Eluate Fraction, 1M NaCl ([2]; Table 19, 4° C.): 0.05 mg; Mass Protein per Eluate Fraction, 2% Acetic Acid ([2]; Table 19, 4° C.): 0.61 mg; Mass Protein per Eluate Fraction, Flow ([2]; Table 19, 4° C.): 0.13 mg; Percent Eluted by Fraction, 2% Acetic Acid ([2]; Table 19, 4° C.): 77%; Percent Eluted by Fraction, 3M NaCl ([2]; Table 19, 4° C.): 0%; Percent Eluted by Fraction, Flow ([2]; Table 19, 4° C.): 16%; Mass Protein per Eluate Fraction, 1M NaCl ([2]; Table 19, 20° C.): 0.02 mg; Mass Protein per Eluate Fraction, 2% Acetic Acid ([2]; Table 19, 20° C.): 0.60 mg; Mass Protein per Eluate Fraction, Flow ([2]; Table 19, 20° C.): 0.17 mg; Percent Eluted by Fraction, 2% Acetic Acid ([2]; Table 19, 20° C.): 76%; Percent Eluted by Fraction, 3M NaCl ([2]; Table 19, 20° C.): 0%; Percent Eluted by Fraction, Flow ([2]; Table 19, 20° C.): 22%; Mass A1PI in Urea Eluate (mg), Activity ([3]; 1 mg A1PI, eluted with 2M urea, pH 6, elastase inhibition activity assay): 0.36 mg; Mass A1PI in Urea Eluate (mg), Nephelometry ([3]; 1 mg A1PI, eluted with 2M urea, pH 6, immunonephelometry): 0.45 mg; Specific Activity ([3]; mass of A1PI by activity assay relative to immunonephelometry, urea eluate): 0.81 mg/mg
